Measurements taken from PMC8943062.

What was measured:
[1] = molecular target: closed-gate E71V KcsA channel (chymotrypsin-truncated) (UniProt P0A334); test: crystal structure; KcsA-Fab complex (formed from purified channel in DM and Fab, excess Fab removed by SEC) concentrated to 15 mg/ml, crystallised in 50 mM magnesium acetate, 50 mM sodium acetate pH 5.5, 25% PEG 400 at 20 °C; one monomer in the asymmetric unit
[2] = molecular target: open-gate E71V KcsA channel (chymotrypsin-truncated, TM1 and TM2 cross-linked by C28-C118 disulfides) (UniProt P0A334); test: as above

Substance | stoichiometry N [1] | stoichiometry N [2]
closed-gate E71V KcsA channel (chymotrypsin-truncated) (from UniProt P0A334 1-160) (natural protein) | 4 | 
open-gate E71V KcsA channel (chymotrypsin-truncated, TM1 and TM2 cross-linked by C28-C118 disulfides) (from UniProt P0A334 1-160) (natural protein) |  | 4
